Measured values from IntAct's records for PubMed 21642953.

What was measured:
dcc_human DCC = dcc_human DCC (UniProt P43146)
tbb2b_human TUBB2B = tbb2b_human TUBB2B (UniProt Q9BVA1)
tbb2b_human TUBB2B, sequence (Q9BVA1 whole entry): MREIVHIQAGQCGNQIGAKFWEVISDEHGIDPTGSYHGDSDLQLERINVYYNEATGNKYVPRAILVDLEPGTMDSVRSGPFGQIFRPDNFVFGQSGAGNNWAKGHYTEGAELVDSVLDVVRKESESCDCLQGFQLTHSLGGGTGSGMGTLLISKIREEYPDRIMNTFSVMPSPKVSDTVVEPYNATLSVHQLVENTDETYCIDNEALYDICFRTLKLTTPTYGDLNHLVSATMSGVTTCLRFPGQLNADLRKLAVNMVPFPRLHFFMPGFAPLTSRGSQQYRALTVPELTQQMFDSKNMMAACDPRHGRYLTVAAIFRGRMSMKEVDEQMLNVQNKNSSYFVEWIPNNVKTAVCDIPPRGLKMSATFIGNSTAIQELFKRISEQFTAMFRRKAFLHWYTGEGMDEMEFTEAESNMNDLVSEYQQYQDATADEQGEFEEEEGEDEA

dcc_human DCC, sequence (P43146 whole entry): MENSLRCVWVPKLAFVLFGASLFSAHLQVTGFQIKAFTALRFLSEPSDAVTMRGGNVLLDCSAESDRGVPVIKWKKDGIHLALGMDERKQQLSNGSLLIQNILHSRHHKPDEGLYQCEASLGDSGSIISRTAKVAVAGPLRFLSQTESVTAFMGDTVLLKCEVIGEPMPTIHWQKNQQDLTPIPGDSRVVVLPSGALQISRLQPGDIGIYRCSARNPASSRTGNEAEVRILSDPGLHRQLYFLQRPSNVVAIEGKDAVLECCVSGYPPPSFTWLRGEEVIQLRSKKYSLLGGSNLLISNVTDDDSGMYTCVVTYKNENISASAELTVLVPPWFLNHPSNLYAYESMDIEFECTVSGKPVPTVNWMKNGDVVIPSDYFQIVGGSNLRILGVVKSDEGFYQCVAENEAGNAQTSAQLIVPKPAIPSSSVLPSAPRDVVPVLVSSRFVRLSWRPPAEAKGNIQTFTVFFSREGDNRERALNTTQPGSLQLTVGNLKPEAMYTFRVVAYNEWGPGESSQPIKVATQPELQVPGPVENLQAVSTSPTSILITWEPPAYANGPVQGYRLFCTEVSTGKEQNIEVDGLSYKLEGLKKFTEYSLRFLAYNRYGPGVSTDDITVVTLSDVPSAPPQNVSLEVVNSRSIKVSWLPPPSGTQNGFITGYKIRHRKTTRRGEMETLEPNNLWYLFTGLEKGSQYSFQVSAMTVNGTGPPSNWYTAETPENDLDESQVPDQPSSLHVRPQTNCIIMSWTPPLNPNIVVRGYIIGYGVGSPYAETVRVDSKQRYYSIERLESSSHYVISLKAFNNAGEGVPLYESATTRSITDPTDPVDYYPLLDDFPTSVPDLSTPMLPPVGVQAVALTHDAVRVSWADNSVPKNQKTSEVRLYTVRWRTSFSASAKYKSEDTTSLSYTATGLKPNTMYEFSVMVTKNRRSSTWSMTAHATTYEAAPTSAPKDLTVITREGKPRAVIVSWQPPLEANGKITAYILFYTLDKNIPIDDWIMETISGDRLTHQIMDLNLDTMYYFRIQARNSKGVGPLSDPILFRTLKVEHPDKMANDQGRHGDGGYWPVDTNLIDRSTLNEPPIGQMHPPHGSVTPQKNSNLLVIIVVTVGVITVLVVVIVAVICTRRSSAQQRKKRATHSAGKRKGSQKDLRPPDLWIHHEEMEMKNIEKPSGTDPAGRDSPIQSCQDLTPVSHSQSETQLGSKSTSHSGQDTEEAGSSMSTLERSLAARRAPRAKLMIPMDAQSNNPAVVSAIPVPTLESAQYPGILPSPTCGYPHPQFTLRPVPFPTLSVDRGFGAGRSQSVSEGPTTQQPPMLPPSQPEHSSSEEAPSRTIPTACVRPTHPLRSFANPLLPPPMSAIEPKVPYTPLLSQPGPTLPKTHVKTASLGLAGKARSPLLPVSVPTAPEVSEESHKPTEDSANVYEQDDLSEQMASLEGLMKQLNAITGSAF

| effect of a mutation on the interaction (dcc_human DCC) | effect of a mutation on the interaction (tbb2b_human TUBB2B) | Substance |
| --- | --- | --- |
| disrupting interaction |  | Unconventional myosin-X (Homo sapiens), Q9HD67 F2002K |
|  | disrupting interaction | Unconventional myosin-X (Homo sapiens), Q9HD67 K1647D |
|  | disrupting interaction | Unconventional myosin-X (Homo sapiens), Q9HD67 K1650D |
